Measurements reported in patent US20240309080A1 (CHIA TAI TIANQING PHARMACEUTICAL GROUP, published 2024).
Where a chain is given by its changes, count along the chain named. Read-outs that look alike come from different tables or passages of the source.

B1: hu1C5F12E9-V8 (IgG1) (antibody)
heavy: not shown
light: DIQMTQSPSSLSASVGDRVTITCRPTENIYSYLAWYQQKPGKAPKLLIYFARTLAEGVPSRFSGSGSGTDFTLTISSLQPEDFATYYCQHHYGTPWTFGGGTKVEIKRTVAAPSVFIFPPSDEQLKSGTASVVCLLNNFYPREAKVQWKVDNALQSGNSQESVTEQDSKDSTYSLSSTLTLSKADYEKHKVYACEVTHQGLSSPVTKSFNRGEC
B2: hu1C5F12E9-V8 (IgG4) (antibody)
heavy: not shown
light: B1 light
B3: hu1C5F12E9-V14 (IgG4) (antibody)
heavy: not shown
light: B1 light with A43S
B4: hu1C5F12E9-V14 (IgG1) (antibody)
heavy: not shown
light: B1 light with A43S
B5: Chimeric 1C5F12E9 (antibody, V domains shown)
VH: QVQLQQPGTELVKPGASVKMSCKASGYTFTTYWMHWVKQRPGQGLEWIGVIDPSDSDTTYNQKFKGKATLTVDTSSSTAYMQLSSLTSEDSAVYYCTRSLDGYYDYWGQGTTLTVSS
VL: DIQMTQSPASLSASVGETVTITCRPTENIYSYLAWYQQKQGKSPHLLVYFARTLAEGVPSRFSGSGSGTQFSLKINSLQPEDFGIYYCQHHYGTPWTFGGGTKLEIK

What was measured:
Experiment in all cases: cell-based or functional assay
[1] = target: T1, recombinant human TSLP-his (human, UniProt Q969D9 29-159, biotin-labeled in the capture ELISA)
[2] = target: T1, recombinant human TSLP-his; remark: listed apart in the source
[3] = target: T1, recombinant human TSLP-his; remark: listed apart in the source
[4] = target: T1, recombinant human TSLP-his; remark: listed apart in the source
[5] = target: T1, recombinant human TSLP-his; remark: listed apart in the source
[6] = target: T1, recombinant human TSLP-his; remark: listed apart in the source

Row | Binder | IC50, TSLP-his dependent survival and proliferation of BAF3-3E6 cells expressing TSLPR/IL7R (RLU) [1] [pM] | IC50, STAT5-luciferase reporter in HEK293T-TSLPR/IL7R/STAT5-Luc cells stimulated with human TSLP-his (RLU) [2] [mg/L] | IC50, TSLP-his dependent survival and proliferation of BAF3-3E6 cells expressing TSLPR/IL7R (Cell Titer-Glo, RLU) [3] [pM] | IC50, TSLP-his dependent survival and proliferation of BAF3-3E6 cells expressing TSLPR/IL7R (Cell Titer-Glo, RLU) [4] [pM] | IC50, TSLP-his dependent survival and proliferation of BAF3-3E6 cells expressing TSLPR/IL7R (RLU) [5] [pM] | IC50, STAT5-luciferase reporter in HEK293T-TSLPR/IL7R/STAT5-Luc cells stimulated with human TSLP-his (RLU) [6] [mg/L]
1 | B1 | 4.32 | 0.0118 |  |  |  | 
2 | B2 | 14.7 | ~0.0162 | 1.68 |  |  | 
3 | B3 |  |  |  | 5.78 | 8.36 | 0.025
4 | B4 |  |  |  |  | 6.73 | 0.022
5 | B5 |  |  | 0.521 | 1.37 |  | 
